Consider four molecules from US20200199213A1 (Eli Lilly, published 2020).

Assay [1] deals with T1, human ANGPTL3 (human, UniProt Q9Y5C1 17-460).
T1 construct: Biotinylated in the ELISA assays; also called hANGPTL3; free ANGPTL3
T1 sequence: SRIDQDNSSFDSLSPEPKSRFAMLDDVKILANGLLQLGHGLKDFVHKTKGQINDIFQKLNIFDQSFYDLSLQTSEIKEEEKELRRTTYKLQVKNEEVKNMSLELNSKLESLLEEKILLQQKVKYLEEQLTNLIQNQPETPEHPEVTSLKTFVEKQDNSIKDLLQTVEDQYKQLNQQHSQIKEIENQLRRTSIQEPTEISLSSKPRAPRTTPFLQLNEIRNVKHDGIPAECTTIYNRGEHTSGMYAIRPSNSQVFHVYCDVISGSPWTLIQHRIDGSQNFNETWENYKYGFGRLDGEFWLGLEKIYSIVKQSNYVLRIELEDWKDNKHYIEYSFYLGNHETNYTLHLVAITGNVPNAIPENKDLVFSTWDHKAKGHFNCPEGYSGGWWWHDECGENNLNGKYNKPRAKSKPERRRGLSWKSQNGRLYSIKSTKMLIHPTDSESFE
In words: ELISA; Ab captured by anti-human Fc; biotinylated antigen at 33.3 nM. As for the experimental part: (§1) ELISA Assay: Ab binding selectivity to either the ANGPTL3/8 complex, free ANGPTL3 or free ANGPTL8 is verified using standard ELISA assays. […] Ab from CHO supernatants after expression in CHO cells is then captured to the assay plate and results is an Ab concentration of 2 μg/ml. Biotinylated antigen (ANGPTL3, ANGPTL8 or ANGPTL3/8 complex) is added at varying concentrations by serial dilution to allow for Ab/antigen binding. Ab/antigen complexes are detected after the addition of alkaline phosphatase-conjugated neutravidin, and alkaline phosphatase substrate, and subsequent measurement of the optical density at 560 nm.
For orientation: In an ELISA, binding on a coated surface is turned into a signal by an enzyme label.

In assay [2] the target is T2, human ANGPTL8 (human, UniProt Q6UXH0 22-198).
T2 construct: Biotinylated in the ELISA assays; also called hANGPTL8; free ANGPTL8
T2 sequence: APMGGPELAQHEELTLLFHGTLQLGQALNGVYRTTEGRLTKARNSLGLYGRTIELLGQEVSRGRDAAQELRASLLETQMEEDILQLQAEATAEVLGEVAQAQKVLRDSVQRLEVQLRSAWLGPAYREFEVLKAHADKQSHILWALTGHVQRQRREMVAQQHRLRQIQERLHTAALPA
The assay is described as above. As for the experimental part:
as §1

The target in assay [3] is T3, human ANGPTL3/8 complex (human, UniProt Q9Y5C1 17-460; Q6UXH0 22-198, limits assumed).
T3 construct: also called hANGPTL3/8 complex; ANGTPL3/8 complex
T3 sequence 1: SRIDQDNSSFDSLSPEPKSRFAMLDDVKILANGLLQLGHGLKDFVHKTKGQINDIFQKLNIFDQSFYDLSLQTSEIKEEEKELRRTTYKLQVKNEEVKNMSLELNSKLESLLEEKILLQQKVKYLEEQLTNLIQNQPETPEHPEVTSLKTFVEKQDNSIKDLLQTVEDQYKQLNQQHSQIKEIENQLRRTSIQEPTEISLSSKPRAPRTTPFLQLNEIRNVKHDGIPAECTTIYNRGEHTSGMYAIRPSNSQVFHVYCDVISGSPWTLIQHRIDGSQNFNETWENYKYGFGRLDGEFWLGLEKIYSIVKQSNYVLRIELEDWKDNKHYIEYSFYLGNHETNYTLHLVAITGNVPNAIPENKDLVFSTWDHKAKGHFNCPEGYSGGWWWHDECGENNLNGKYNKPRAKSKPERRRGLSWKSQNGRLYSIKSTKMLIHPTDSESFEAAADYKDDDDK
T3 sequence 2: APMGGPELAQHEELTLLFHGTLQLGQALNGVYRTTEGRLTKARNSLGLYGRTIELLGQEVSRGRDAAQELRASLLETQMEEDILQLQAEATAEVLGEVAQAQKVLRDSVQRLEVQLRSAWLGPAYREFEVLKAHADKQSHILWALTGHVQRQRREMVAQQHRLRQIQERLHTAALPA
In words: ELISA; Ab captured by anti-human Fc; biotinylated antigen at 0.137 nM. The method, then: as §1

The target of assay [4] is T1, human ANGPTL3. In words: single point ELISA; IgG captured by anti-human Fc; biotinylated antigen at 25 nM. The method, then:
(§2) Single Point ELISA (SPE) Assay: Ab binding selectivity to either the ANGPTL3/8 complex, free ANGPTL3 or free ANGPTL8 is initially verified using standard ELISA assays in a single point format. […] IgG secreted into supernatants after expression in CHO cells are then captured to the assay plate. Biotinylated antigen is added at a concentration of 25 nM to allow for Ab/antigen binding. Ab/antigen complexes are detected after adding alkaline phosphatase-conjugated neutravidin and alkaline phosphatase substrate, and subsequent measurement of the optical density at 560 nm. Positive binding is determined by a signal greater than 3 fold over the non-binding background signal.

Assay [5] addresses T3, human ANGPTL3/8 complex. The description is as above. The method, then:
as §2

The target in assay [6] is T2, human ANGPTL8. Described as above. As for the experimental part:
as §2

Assay [7] deals with T3, human ANGPTL3/8 complex. In words: cell-based or functional assay.
In another assay the target is T4, mouse ANGPTL3/8 complex (mouse, UniProt Q9R182 17-455; Q8R1L8 16-198, limits assumed).
T4 sequence (looked up) 1: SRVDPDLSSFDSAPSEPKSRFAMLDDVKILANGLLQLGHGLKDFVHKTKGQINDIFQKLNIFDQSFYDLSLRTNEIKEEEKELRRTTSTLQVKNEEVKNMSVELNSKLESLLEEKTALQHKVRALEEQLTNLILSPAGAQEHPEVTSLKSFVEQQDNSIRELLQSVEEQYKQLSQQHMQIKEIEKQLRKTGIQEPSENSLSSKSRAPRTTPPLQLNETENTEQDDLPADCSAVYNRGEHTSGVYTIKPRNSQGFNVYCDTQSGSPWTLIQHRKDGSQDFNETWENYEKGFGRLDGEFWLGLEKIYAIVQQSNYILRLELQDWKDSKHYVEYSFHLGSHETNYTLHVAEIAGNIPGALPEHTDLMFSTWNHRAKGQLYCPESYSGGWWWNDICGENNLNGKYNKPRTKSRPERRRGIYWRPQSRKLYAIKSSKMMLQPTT
T4 sequence (looked up) 2: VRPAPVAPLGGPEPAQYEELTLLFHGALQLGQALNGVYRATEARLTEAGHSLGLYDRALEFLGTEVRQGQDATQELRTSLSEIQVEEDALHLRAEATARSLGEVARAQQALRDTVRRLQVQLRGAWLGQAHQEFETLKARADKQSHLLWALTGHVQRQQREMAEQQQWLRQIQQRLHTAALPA
In words: cell-based or functional assay.

B1: anti-ANGPTL3/8 complex Ab having a LC of SEQ ID NO:5 and a HC of SEQ ID NO:6 (antibody, human IgG4 S228P, kappa, F234A L235A, V domains shown)
VH: QVTLKESGPTLVKPTQTLTLTCTFSGFSLSISGVGVGWIRQPPGKALEWLALIYRNDDKRYSPSLKSRLTITKDTSKNQVVLTLTNMDPVDTATYYCARTYSSGWYGNWFDPWGQGTLVTVSS
VL: DIVMTQTPLSLPVTPGEPASISCRSSQSLLDSDDGNTYLDWYLQKPGQSPQLLIYMLSYRASGVPDRFSGSGSGTDFTLKISRVEAEDVGIYYCMQRIEFPLTFGGGTKVEIKR
notes: In the ELISA assays tested as IgG from CHO supernatants; also called the Ab
As for B1, the “OD at 560 nm” value with human ANGPTL3 [1] was determined as 0.052 OD 560 nm; with human ANGPTL8 [2], 0.05 OD 560 nm; in the assay with human ANGPTL3/8 complex [3] it was 0.11 OD 560 nm; in the assay with human ANGPTL3 [4] it was 0.074 OD 560 nm; with human ANGPTL3/8 complex [5] it was 2.3 OD 560 nm; in the assay with human ANGPTL8 [6], 0.087 OD 560 nm.

B2: Ab with LC variant having a E99Q mutation (SEQ ID NO:25) and a HC of SEQ ID NO:6 (antibody, human IgG4 S228P, kappa, F234A L235A, V domains shown)
VH: QVTLKESGPTLVKPTQTLTLTCTFSGFSLSISGVGVGWIRQPPGKALEWLALIYRNDDKRYSPSLKSRLTITKDTSKNQVVLTLTNMDPVDTATYYCARTYSSGWYGNWFDPWGQGTLVTVSS
VL: DIVMTQTPLSLPVTPGEPASISCRSSQSLLDSDDGNTYLDWYLQKPGQSPQLLIYMLSYRASGVPDRFSGSGSGTDFTLKISRVEAEDVGIYYCMQRIQFPLTFGGGTKVEIKR
notes: also called E99Q Variant Ab; E99Q Ab
For the molecule B2, the “OD at 560 nm” value with human ANGPTL3 [1] was found to be 0.069 OD 560 nm; with human ANGPTL8 [2] it was 0.063 OD 560 nm; in the assay with human ANGPTL3/8 complex [3], 0.137 OD 560 nm; in the assay with human ANGPTL3 [4], 0.083 OD 560 nm; with human ANGPTL3/8 complex [5], 1.54 OD 560 nm; with human ANGPTL8 [6], 0.1 OD 560 nm. The “% Max Derepression LPL” value with human ANGPTL3/8 complex [7] worked out at 106%; with mouse ANGPTL3/8 complex it was 110%. For the same molecule, the “Ab EC50 (nM), derepression of LPL” value with human ANGPTL3/8 complex [7] came to 0.49 nM; with mouse ANGPTL3/8 complex it was 1.65 nM.

B3: Ab with LC variant having a D33A mutation (SEQ ID NO:22) and a HC of SEQ ID NO:6 (antibody, human IgG4 S228P, kappa, F234A L235A, V domains shown)
VH: QVTLKESGPTLVKPTQTLTLTCTFSGFSLSISGVGVGWIRQPPGKALEWLALIYRNDDKRYSPSLKSRLTITKDTSKNQVVLTLTNMDPVDTATYYCARTYSSGWYGNWFDPWGQGTLVTVSS
VL: DIVMTQTPLSLPVTPGEPASISCRSSQSLLDSADGNTYLDWYLQKPGQSPQLLIYMLSYRASGVPDRFSGSGSGTDFTLKISRVEAEDVGIYYCMQRIEFPLTFGGGTKVEIKR
notes: also called D33A Variant Ab; D33A Ab
Turning to B3, the “OD at 560 nm” value with human ANGPTL3 [1] was 0.067 OD 560 nm; with human ANGPTL8 [2] it was 0.049 OD 560 nm; with human ANGPTL3/8 complex [3] it was 0.101 OD 560 nm; with human ANGPTL3 [4], 0.076 OD 560 nm; in the assay with human ANGPTL3/8 complex [5] it was 0.898 OD 560 nm; with human ANGPTL8 [6] it was 0.118 OD 560 nm. Also, the entries for the “% Max Derepression LPL” value with human ANGPTL3/8 complex [7] and in the assay with mouse ANGPTL3/8 complex were 103% and 106%, respectively. Moreover, the “Ab EC50 (nM), derepression of LPL” value in the assay with human ANGPTL3/8 complex [7] amounted to 1.14 nM; with mouse ANGPTL3/8 complex it was 4.07 nM.

B4: Ab with LC variant having a D31S mutation (SEQ ID NO:21) and a HC of SEQ ID NO:6 (antibody, human IgG4 S228P, kappa, F234A L235A, V domains shown)
VH: QVTLKESGPTLVKPTQTLTLTCTFSGFSLSISGVGVGWIRQPPGKALEWLALIYRNDDKRYSPSLKSRLTITKDTSKNQVVLTLTNMDPVDTATYYCARTYSSGWYGNWFDPWGQGTLVTVSS
VL: DIVMTQTPLSLPVTPGEPASISCRSSQSLLSSDDGNTYLDWYLQKPGQSPQLLIYMLSYRASGVPDRFSGSGSGTDFTLKISRVEAEDVGIYYCMQRIEFPLTFGGGTKVEIKR
notes: also called D31S Variant Ab; D31S Ab
Take B4: the “OD at 560 nm” value was found to be 0.069 OD 560 nm with human ANGPTL3 [1]; 0.063 OD 560 nm with human ANGPTL8 [2]; 0.137 OD 560 nm in the assay with human ANGPTL3/8 complex [3]; 0.058 OD 560 nm with human ANGPTL3 [4]; 0.928 OD 560 nm in the assay with human ANGPTL3/8 complex [5]; 0.072 OD 560 nm with human ANGPTL8 [6]. For the same molecule, the results for the “% Max Derepression LPL” value with human ANGPTL3/8 complex [7] and with mouse ANGPTL3/8 complex were 106% and 110%, respectively. Moreover, the “Ab EC50 (nM), derepression of LPL” value in the assay with human ANGPTL3/8 complex [7] was 0.86 nM; with mouse ANGPTL3/8 complex it was 1.79 nM.
